Changes are numbered by the printed parent chain.
B1: monoclonal antibody 94-3A2-2 (antibody, V domains shown)
VH: QVQLQQSGAELAKPGASVKMSCKASGYTFTTYWMHWIKQRPGQGLEWIGYINPSNDYTEYNQKFKDEATLTVDKSSSTAYMQLNSLISEDSAVYYCAHPAYWGQGTLVTVSS
VL: ENVLTQSPAIMSASPGEKVTMTCSASSSVNYMHWYQQKSGTSPKLWIYDTSKLASGVPGRFSGSGSGNSYSLTISSMEAEDVATYYCFQGSGYPFTFGSGTKLEIKR
B2: monoclonal antibody 94-3A6 (antibody, V domains shown)
VH: QVQLQQPGTELVKPGASVKLSCKASGYPFTNYWMHWVKQRPGQGLEWIGNINPTNGDTNYNEKFKSKATLTVDKSSSTAYMQLSSLTSEDSAVYYCTRVTYWGQGTTLTVSS
VL: B1 VL with S28N, Y35F, K38E, G40S, F95Y, S99G

Assays:
[1] = target: T1, human 0N4R tau with the P301L mutation (expressed in JNPL3 tau transgenic mice) (human, UniProt P10636 1-758); assay: immunohistochemistry of spinal cord sections
T1 construct: Tested as inclusions in spinal cord sections of JNPL3 mice; also called tau inclusions of JNPL3 mice
T1 sequence (P10636 other isoform, or with tags, fused parts or gaps P301L P301L limits assumed): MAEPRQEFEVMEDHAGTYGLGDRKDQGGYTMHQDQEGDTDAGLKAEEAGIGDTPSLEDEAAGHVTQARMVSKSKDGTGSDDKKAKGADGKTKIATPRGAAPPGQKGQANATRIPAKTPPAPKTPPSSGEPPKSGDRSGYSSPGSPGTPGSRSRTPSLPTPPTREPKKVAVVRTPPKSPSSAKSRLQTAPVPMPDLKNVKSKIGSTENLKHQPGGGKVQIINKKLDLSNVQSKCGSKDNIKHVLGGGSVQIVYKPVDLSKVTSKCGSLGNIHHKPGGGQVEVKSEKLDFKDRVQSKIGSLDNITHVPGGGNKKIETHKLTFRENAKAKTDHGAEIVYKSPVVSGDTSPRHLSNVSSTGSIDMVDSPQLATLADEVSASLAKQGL
Method: Paraffin embedded tissues from JNPL3 tau transgenic, PS19 tau-transgenic and non-transgenic (NTg) mice were used. All paraffin embedded, formalin fixed human brain tissues from de-identified donors were obtained through a human brain tissue bank. Sequential tissue sections were deparaffinized with xylenes and sequentially rehydrated with graded ethanol solutions (100-70%). Antigen retrieval was performed by incubating sections in a steam bath for 30 minutes. Endogenous peroxidase activity was quenched with 1.5% hydrogen peroxide/0.005% Triton-X-100/Tris-buffered Saline (TBS) for 20 minutes. Sections were blocked with 2.5% horse serum then incubated overnight at 4° C. with primary antibody. Following washing with TBS, sections were incubated with Vector ImmPress anti-mouse IgG peroxidase (Vector Laboratories, Burlingame, Calif., USA) for 30 minutes. Sections were washed with TBS and then developed with 3, 3′diaminobenzidine (DAB kit; Vector Laboratories). Reactions were stopped by immersing the slides in TBS and sections were counterstained with Mayer's hematoxylin (Sigma Aldrich, St. Louis, Mo.). Next, sections were dehydrated with an ascending series of ethanol solutions (70%-100%) followed by xylenes and coverslipped using cytoseal (Thermo Scientific, Waltham, Mass.).
Each of the 83E4, 94-3A2-2, 94-3A6 and 94-4F1 binds R4 and can recognize 3- and 4-repeat tau. […]

[2] = target: Aβ (UniProt P05067 672-713); assay: ELISA screening of hybridoma media on coated peptide
Aβ, sequence (P05067 672-713): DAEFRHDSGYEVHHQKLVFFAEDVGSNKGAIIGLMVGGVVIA
Method: (§1) All hybridoma clones were screened for reactivity to K18 by enzyme-linked immunosorbent assay (ELISA). MaxiSorp plates (Thermo Scientific, Waltham, Mass.) or Immulon 4HBX plates (ThermoFisher Scientific, Waltham, Mass.) were coated with 1 μg/ml human recombinant tau or αS proteins or Aβ in PBS or 100 mM sodium bicarbonate and blocked with 5% FBS/PBS or 1% Block ACE in PBS. Media from the hybridomas were applied to plates, which were then incubated at room temperature for 3 hours. Next, the plates were washed with PBS and incubated with goat anti-mouse secondary antibody conjugated to horse radish peroxidase (HRP; Jackson Immuno Research Labs, West Grove, Pa.) for 1 hour at room temperature. Then, plates were washed and TMB substrates (Pierce, Rockford, Ill.) were applied until color changes were observed. Reactions were then quenched with 1M HCl or 85% 0-Phosphoric acid and absorbance was measured at 450 nm. Clones that were positive by ELISA were transferred to larger culture plates as needed. […]
(§2) Mice were immunized with the synthetic peptides corresponding to the MTBD in 4R human tau 244-372 (K18) conjugated to 21-140 αS at the N-terminus or 21-140 αS at the N-terminus and Aβ1-42 at the C-terminus. […] The specificity of these monoclonal antibodies was further determined by probing immunoblots of recombinant full-length human 2N/3R and 2N/4R tau and K18 (4R) tau fragment (FIG. 2). […]

[3] = target: T2, human 1N4R tau with the P301S mutation (expressed in PS19 tau transgenic mice) (human, UniProt P10636 1-758); assay: immunoblot of total mouse brain lysates
T2 construct: Tested in total brain lysates (immunoblot) and spinal cord sections (immunohistochemistry) of PS19 mice; also called human tau in PS19 mice; over-expressed 1N4R human tau in PS19 brain
T2 sequence (P10636 other isoform, or with tags, fused parts or gaps P301S P301S limits assumed): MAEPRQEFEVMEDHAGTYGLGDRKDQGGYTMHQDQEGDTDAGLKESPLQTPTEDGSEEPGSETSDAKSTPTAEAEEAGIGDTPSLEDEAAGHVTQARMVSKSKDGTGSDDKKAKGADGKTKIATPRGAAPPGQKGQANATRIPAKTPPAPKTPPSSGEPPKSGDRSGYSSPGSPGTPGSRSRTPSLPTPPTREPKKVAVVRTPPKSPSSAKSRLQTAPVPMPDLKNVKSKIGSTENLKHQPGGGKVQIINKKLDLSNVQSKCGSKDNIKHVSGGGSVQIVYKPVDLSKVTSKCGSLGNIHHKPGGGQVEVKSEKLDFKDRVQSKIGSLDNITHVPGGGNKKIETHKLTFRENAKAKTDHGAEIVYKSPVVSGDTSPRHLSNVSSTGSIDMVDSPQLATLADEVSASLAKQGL
Method: Preparation of total mouse brain protein lysates Tau KO, PS19 Tg or NTg mice were euthanized by CO₂ inhalation and the brains were harvested. Brain tissue was homogenized in 2% SDS/50 mM Tris, pH 7.5 using a probe sonicator and then incubated for 10 min at 100° C. Protein concentrations were determined by BCA assay using BSA as the standard. Sample buffer was added and equal amounts of protein (10 μg) were resolved by SDS-PAGE and analyzed by immunoblot.
To assess the selectivity of these antibodies for human tau, immunoblots of total mouse brain lysates from tau KO, NTg and PS19 tau Tg mice were probed with these antibodies (FIG. 3). All of these antibodies detected human tau in whole brain lysates from PS19 mice. Antibodies 81A11, 83E4 and 94-3A2-2 reacted weakly with endogenous tau in NTg mice. […] All the antibodies were specific for tau as shown using the lysates from tau KO mice. A non-specific band at approximately 30 kDa present in all the lysates was attributed to non-specific binding of the secondary antibody shown with an immunoblot probed only with secondary antibody.

[4] = target: recombinant human α-synuclein (human, UniProt P37840 1-140); assay: ELISA screening of hybridoma media on coated protein
Method: as §1, §2

[5] = target: T3, recombinant full-length human 2N/4R tau (human, UniProt P10636 2-758); assay: immunoblot of recombinant tau proteins
T3 construct: Expressed in E. coli from pRK172 and purified; also called 4-repeat tau
T3 sequence (P10636 other isoform, or with tags, fused parts or gaps limits assumed): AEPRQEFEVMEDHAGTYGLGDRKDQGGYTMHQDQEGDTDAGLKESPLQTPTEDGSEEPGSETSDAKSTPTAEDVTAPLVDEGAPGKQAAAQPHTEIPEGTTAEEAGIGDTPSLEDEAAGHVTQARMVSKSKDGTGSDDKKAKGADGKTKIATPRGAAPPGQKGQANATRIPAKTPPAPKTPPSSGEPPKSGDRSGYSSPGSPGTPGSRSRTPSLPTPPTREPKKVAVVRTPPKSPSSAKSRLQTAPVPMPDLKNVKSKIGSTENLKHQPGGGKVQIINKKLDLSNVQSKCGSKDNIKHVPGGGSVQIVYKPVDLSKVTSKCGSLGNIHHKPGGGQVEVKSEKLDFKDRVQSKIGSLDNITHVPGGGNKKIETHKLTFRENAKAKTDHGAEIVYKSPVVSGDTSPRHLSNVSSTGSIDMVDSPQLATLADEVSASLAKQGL

[6] = target: T4, recombinant full-length human 2N/3R tau (human, UniProt P10636 2-758); assay: immunoblot of recombinant tau proteins
T4 construct: Expressed in E. coli from pRK172 and purified; also called 3-repeat tau
T4 sequence (P10636 other isoform, or with tags, fused parts or gaps limits assumed): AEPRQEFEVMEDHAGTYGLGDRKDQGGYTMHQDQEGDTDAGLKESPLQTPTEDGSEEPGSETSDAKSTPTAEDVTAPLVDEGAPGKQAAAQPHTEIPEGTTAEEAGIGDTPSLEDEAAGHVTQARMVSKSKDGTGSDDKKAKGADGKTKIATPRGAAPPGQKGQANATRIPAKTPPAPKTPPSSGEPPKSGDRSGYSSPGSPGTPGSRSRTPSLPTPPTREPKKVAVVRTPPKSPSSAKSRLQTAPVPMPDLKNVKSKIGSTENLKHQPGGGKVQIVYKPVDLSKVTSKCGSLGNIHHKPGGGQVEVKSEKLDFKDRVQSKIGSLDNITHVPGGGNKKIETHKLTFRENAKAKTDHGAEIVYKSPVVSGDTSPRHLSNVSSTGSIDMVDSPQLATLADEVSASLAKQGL

[7] = target: T5, recombinant glutathione S-transferase (GST) tagged human tau MTBD R4 (human); assay: summary of immunoblots of GST-tagged MTBD fragments
T5 construct: Expressed in E. coli; total bacterial lysates were blotted after SDS-PAGE; also called GST/R4; not shown: glutathione S-transferase (GST) tag encoded by bacterial expression plasmid pGEX-2T; junction
T5 chain: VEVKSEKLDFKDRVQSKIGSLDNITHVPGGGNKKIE
Description: For the generation of recombinant glutathione S-transferases (GST) tagged human MTBD R1-3 (residues 244-336 relative to ON/4R tau), R1 (residues 244-274 relative to ON/4R tau), R3 (residues 306-336 relative to ON/4R tau) and R4 (residues 337-372 relative to ON/4R tau) proteins, the corresponding cDNA sequences were amplified by PCR with the respective oligonucleotides with added BamHI and EcoRI restriction sites and cloned in these sites of bacterial expression plasmid pGEX-2T. These proteins were expressed in E. coli BL21 (DE3)/RIL with isopropyl β-D-1-thiogalactopyranoside induction. The bacteria were lysed with 2% SDS and following the addition of SDS sample buffer equal amounts of total bacterial lysates were resolved by SDS-PAGE and analyzed by immunoblotting.
Mice were immunized with the synthetic peptides corresponding to the MTBD in 4R human tau 244-372 (K18) conjugated to 21-140 αS at the N-terminus or 21-140 αS at the N-terminus and Aβ1-42 at the C-terminus. […] This selectivity for tau was also confirmed by detection of tau pathology by immunohistochemistry of human AD post-mortem brain tissue with abundant tau pathology. […] The specificity of these monoclonal antibodies was further determined by probing immunoblots of recombinant full-length human 2N/3R and 2N/4R tau and K18 (4R) tau fragment (FIG. 2). […]

Row | Binder | binding result [1] | binding result [2] | binding result [3] | binding result [4] | binding result [5] | binding result [6] | binding result [7]
1 | B1 | binds | no binding | binds | no binding | binds | binds | binds
2 | B2 | binds | no binding | binds | no binding | binds | binds | binds
